Results from patent US20260217806A1 (H LUNDBECK A S, published 2026).

Target: brain derived alpha synuclein oligomers and fibrils (MSA and PD brain homogenates enriched for aggregated, … (UniProt P37840 1-140))
Test: ELISA on MSA and PD brain homogenates enriched for aggregated, insoluble alpha synuclein (data not shown)

B1: GM37 variant 2 (antibody, human IgG1, kappa, V domains shown)
VH: EVQLLESGGGLVQTGGSLRLSCAASGFTFSSYAMTWVRQAPGKGLEWVSAIRSQGDRTDYADSVKGRFTISRDNSQNTLYLQMNSLRAEDTAVYYCAKNWAPFDSWGQGTLVTVSS
VL: not shown
notes: VH 31 and VL 8 are firmly tied to the antibody; It is a human IgG1 kappa; also called GM37v2; GM37var2
**Q.** How did the EC50 turn out when B1 was run?
**A.** Its EC50 is 0.09 to 0.16 nM.
